Experimental data taken from patent US20250066436A1.

Legend:
[1] = target: endothelial cell protein C receptor (EPCR) (human) (UniProt Q9UNN8); assay: flow cytometry, labelled active-site blocked protease on endothelial cells
[2] = target: endothelial cell protein C receptor (EPCR) (human) (UniProt Q9UNN8); assay: flow cytometry, fluorescently labelled protease on endothelial cells
[3] = target: endothelial cell protein C receptor (EPCR) (human) (UniProt Q9UNN8); assay: binding to EPCR; reference is the natural ligands of EPCR
[4] = target: PAR1^WT/β-11 (PAR1 with the GFP 11th β-strand fused to its C-terminus) (UniProt P25116); assay: cell-based or functional assay
[5] = target: endothelial cell protein C receptor (EPCR) (human) (UniProt Q9UNN8); assay: cell-based or functional assay
[6] = target: endothelial cell protein C receptor (EPCR) (human) (UniProt Q9UNN8); assay: binding to EPCR on endothelial cells; reference is wild type
[7] = target: endothelial cell protein C receptor (EPCR) (human) (UniProt Q9UNN8); assay: binding to EPCR on endothelial cells; reference is wild type APC
[8] = target: AP-PAR1 (PAR1 with an N-terminal alkaline phosphatase tag) (UniProt P25116)
[9] = target: T1, AP-PAR1 (PAR1 with an N-terminal alkaline phosphatase tag), P25116
T1 chain: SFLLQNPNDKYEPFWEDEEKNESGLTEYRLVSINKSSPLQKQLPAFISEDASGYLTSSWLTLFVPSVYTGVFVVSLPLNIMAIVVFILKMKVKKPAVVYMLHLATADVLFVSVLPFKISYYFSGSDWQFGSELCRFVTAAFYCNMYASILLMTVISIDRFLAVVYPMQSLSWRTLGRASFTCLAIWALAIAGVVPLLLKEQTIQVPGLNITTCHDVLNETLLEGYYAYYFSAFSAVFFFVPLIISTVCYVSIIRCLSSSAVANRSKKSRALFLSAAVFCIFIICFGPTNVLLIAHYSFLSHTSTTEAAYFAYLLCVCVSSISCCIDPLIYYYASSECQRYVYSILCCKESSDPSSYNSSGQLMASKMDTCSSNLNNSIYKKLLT

Chain of UniProt Q9UNN8 (Q9UNN8 18-238): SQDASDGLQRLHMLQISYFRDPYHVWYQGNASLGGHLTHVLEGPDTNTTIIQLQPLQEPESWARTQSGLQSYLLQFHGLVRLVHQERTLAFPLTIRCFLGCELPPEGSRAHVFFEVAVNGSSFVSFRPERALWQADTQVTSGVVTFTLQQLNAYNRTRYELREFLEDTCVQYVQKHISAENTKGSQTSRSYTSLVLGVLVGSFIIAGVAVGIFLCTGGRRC

P-APC^CIDR (APC^CIDRα1.4 active-site blocked with biotinylated PPACK) (enzyme)
concentration at which cell binding was still clearly visible [1]: < 0.3 nM
lowest concentration tested at which bound protease was present [2]: 0.1 nM

APC^CIDRα1.4 (truncated human activated protein C fused to the PfEMP1 CIDRα1.4 HB3var03 domain), proteolytically active (enzyme)
fold higher affinity than its natural ligands [3]: < 100 fold
β-arrestin 2 recruitment to PAR1 (GFP formation by flow cytometry) [4]: > 2 fold
β-arrestin 2 recruitment to activated PAR1 in HEK 293T β-arrestin 2 reporter cells [5]: 3 fold
fold increase in affinity compared to wild type [6]: > 100 fold
fold enhanced affinity compared to wild type APC [7]: < 100 fold

wild type activated protein C (APC), proteolytically active
PAR1 proteolysis (release of alkaline phosphatase tag into the supernatant) [8]: APC^CIDR cleaves PAR1 with comparable activity as APC

B1: APC^CIDRα1.4 (truncated human activated protein C fused to the PfEMP1 CIDRα1.4 HB3var03 domain), proteolytically active (protein)
chain: MRLAVGALLVCAVLGLCLPDCGVECKNETCTPKTVIYPDCGKNEKYEPPGDAKNTEINVINSGDKEGYIFEKLSEFCTNENNENGKNYEQWKCYYDNKKNNNKCKMEINIANSKLKNKITSFDEFFDFWVRKLLIDTIKWETELTYCINNTDVTDCNKCNKNCVCFDKWVKQKEDEWTNIMKLFTNKHDIPKKYYLNINDLFDSFFFQVIYKFNEGEAKWNELKENLKKQIASSKANNGTKDSEAAIKVLFNHIKEIATICKDNNTNEGCGDQCLVLPLEHPCASLCCGHGTCIDGIGSFSCDCRSGWEGRFCQREVSFLNCSLDNGGCTHYCLEEVGWRRCSCAPGYKLGDDLLQCHPAVKFPCGRPWKRMEKKRSHLKRDTEDQEDQVDPRLIDGKMTRRGDSPWQVVLLDSKKKLACGAVLIHPSWVLTAAHCMDESKKLLVRLGEYDLRRWEKWELDLDIKEVFVHPNYSKSTTDNDIALLHLAQPATLSQTIVPICLPDSGLAERELNQAGQETLVTGWGYHSSREKEAKRNRTFVLNFIKIPVVPHNECSEVMSNMVSENMLCAGILGDRQDACEGDSGGPMVASFHGTWFLVGLVSWGEGCGLLHNYGVYTKVSRYLDWIHGHIRDKEAPQKSWAP
PAR1 proteolysis (release of alkaline phosphatase tag into the supernatant) [9]: APC^CIDR cleaves PAR1 with comparable activity as APC
